Assay results as given in the supplement of paper PMC9112550, “Optimization of the antimicrobial peptide Bac7 by deep mutational scanning” (BMC Biology, 2022).
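Note: peptides expressed intracellularly from a pBAD plasmid library in pooled LB shake-flask culture, induced with 0.3% L-arabinose, DNA abundance read by NGS, three biological replicates, DESeq2 with apeglm shrinkage.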

What follows are sequences tested on Escherichia coli TOP10 (assay: shrunken log2 fold change of peptide-encoding DNA abundance (4.5 h post-induction vs induction); higher = less antimicrobial activity (less host growth inhibition)). Details: time post-induction: 4.5 h; library: site-saturation at positions 5, 18, 19, 20.
In the case of RRIRDRPPRLPRPRPRPNNIPRP, the “shrunken log2 fold change” value is reported as -0.558.
RRIRGRPPRLPRPRPRPMLVPRP was tested, and the “shrunken log2 fold change” value was 0.418.
With RRIRWRPPRLPRPRPRPTNYPRP the “shrunken log2 fold change” value was -0.347.
In the case of RRIRNRPPRLPRPRPRPMTEPRP, the “shrunken log2 fold change” value is reported as 0.00748.
In the case of RRIRMRPPRLPRPRPRPELWPRP, the “shrunken log2 fold change” value is reported as 3.17.
In the case of RRIRGRPPRLPRPRPRPYEFPRP, the “shrunken log2 fold change” value is reported as -0.0878.
For RRIRCRPPRLPRPRPRPPDKPRP, the “shrunken log2 fold change” value was 0.0264.
With RRIRWRPPRLPRPRPRPICNPRP the “shrunken log2 fold change” value was -0.0133.
With RRIRMRPPRLPRPRPRPVPFPRP the “shrunken log2 fold change” value was 0.179.
RRIRERPPRLPRPRPRPVKRPRP was tested, and the “shrunken log2 fold change” value was 0.025.
With RRIRLRPPRLPRPRPRPCTKPRP the “shrunken log2 fold change” value was -0.22.
For RRIRFRPPRLPRPRPRPHKRPRP, the “shrunken log2 fold change” value was 0.0127.
In the case of RRIRHRPPRLPRPRPRPFCAPRP, the “shrunken log2 fold change” value is reported as 0.076.
In the case of RRIRGRPPRLPRPRPRPPFNPRP, the “shrunken log2 fold change” value is reported as 1.66.
With RRIRFRPPRLPRPRPRPMQIPRP the “shrunken log2 fold change” value was -0.147.
In the case of RRIRIRPPRLPRPRPRPHAVPRP, the “shrunken log2 fold change” value is reported as -0.12.
For RRIRLRPPRLPRPRPRPCNYPRP, the “shrunken log2 fold change” value was -0.593.
For RRIRDRPPRLPRPRPRPRTTPRP, the “shrunken log2 fold change” value was 0.0893.
With RRIRQRPPRLPRPRPRPEVCPRP the “shrunken log2 fold change” value was 0.134.
With RRIRYRPPRLPRPRPRPGPKPRP the “shrunken log2 fold change” value was 0.185.
RRIRDRPPRLPRPRPRPEVFPRP was tested, and the “shrunken log2 fold change” value was 0.443.
With RRIRWRPPRLPRPRPRPTSHPRP the “shrunken log2 fold change” value was -0.26.
In the case of RRIRLRPPRLPRPRPRPIEKPRP, the “shrunken log2 fold change” value is reported as 0.000506.
With RRIRFRPPRLPRPRPRPLYKPRP the “shrunken log2 fold change” value was -0.813.
With RRIRDRPPRLPRPRPRPKIFPRP the “shrunken log2 fold change” value was -0.0898.
With RRIRFRPPRLPRPRPRPPEAPRP the “shrunken log2 fold change” value was 0.232.
In the case of RRIRFRPPRLPRPRPRPQRVPRP, the “shrunken log2 fold change” value is reported as 0.045.
RRIRARPPRLPRPRPRPWKNPRP was tested, and the “shrunken log2 fold change” value was -0.145.
For RRIRSRPPRLPRPRPRPSLPPRP, the “shrunken log2 fold change” value was -0.352.
RRIRLRPPRLPRPRPRPECEPRP was tested, and the “shrunken log2 fold change” value was 0.147.
For RRIRCRPPRLPRPRPRPAYTPRP, the “shrunken log2 fold change” value was -0.305.
In the case of RRIRNRPPRLPRPRPRPDTDPRP, the “shrunken log2 fold change” value is reported as 0.0251.
For RRIRWRPPRLPRPRPRPLFMPRP, the “shrunken log2 fold change” value was -0.286.
In the case of RRIRGRPPRLPRPRPRPAGIPRP, the “shrunken log2 fold change” value is reported as 0.207.
For RRIRHRPPRLPRPRPRPRAWPRP, the “shrunken log2 fold change” value was 0.0709.
In the case of RRIRGRPPRLPRPRPRPWSCPRP, the “shrunken log2 fold change” value is reported as 0.202.
For RRIRWRPPRLPRPRPRPSDAPRP, the “shrunken log2 fold change” value was 0.191.
For RRIRGRPPRLPRPRPRPVTTPRP, the “shrunken log2 fold change” value was 1.21.
RRIRCRPPRLPRPRPRPGRCPRP was tested, and the “shrunken log2 fold change” value was 0.436.
RRIRFRPPRLPRPRPRPSFLPRP was tested, and the “shrunken log2 fold change” value was -0.572.
RRIRLRPPRLPRPRPRPLCAPRP was tested, and the “shrunken log2 fold change” value was 0.11.
With RRIRLRPPRLPRPRPRPAMMPRP the “shrunken log2 fold change” value was -0.221.
With RRIRVRPPRLPRPRPRPTNYPRP the “shrunken log2 fold change” value was -0.519.
With RRIRPRPPRLPRPRPRPKLFPRP the “shrunken log2 fold change” value was 0.18.
In the case of RRIRMRPPRLPRPRPRPCLHPRP, the “shrunken log2 fold change” value is reported as -0.608.
RRIRIRPPRLPRPRPRPLMQPRP was tested, and the “shrunken log2 fold change” value was -0.564.
In the case of RRIRERPPRLPRPRPRPFHIPRP, the “shrunken log2 fold change” value is reported as -0.133.
For RRIRDRPPRLPRPRPRPVPIPRP, the “shrunken log2 fold change” value was 0.245.
With RRIRIRPPRLPRPRPRPSRAPRP the “shrunken log2 fold change” value was -0.212.
In the case of RRIRNRPPRLPRPRPRPFYFPRP, the “shrunken log2 fold change” value is reported as -0.718.
For RRIRGRPPRLPRPRPRPDKFPRP, the “shrunken log2 fold change” value was 0.0879.
With RRIRIRPPRLPRPRPRPEKRPRP the “shrunken log2 fold change” value was -0.0249.
In the case of RRIRWRPPRLPRPRPRPEDKPRP, the “shrunken log2 fold change” value is reported as -0.028.
In the case of RRIRERPPRLPRPRPRPNWMPRP, the “shrunken log2 fold change” value is reported as -0.24.
For RRIRSRPPRLPRPRPRPHTNPRP, the “shrunken log2 fold change” value was -0.335.
For RRIRRRPPRLPRPRPRPHNKPRP, the “shrunken log2 fold change” value was -0.276.
In the case of RRIRSRPPRLPRPRPRPMCHPRP, the “shrunken log2 fold change” value is reported as -0.576.
In the case of RRIRNRPPRLPRPRPRPIHMPRP, the “shrunken log2 fold change” value is reported as 0.0468.
In the case of RRIRFRPPRLPRPRPRPKFPPRP, the “shrunken log2 fold change” value is reported as -0.0265.
In the case of RRIRQRPPRLPRPRPRPQSHPRP, the “shrunken log2 fold change” value is reported as -0.309.
With RRIRWRPPRLPRPRPRPPKLPRP the “shrunken log2 fold change” value was 0.152.
For RRIRYRPPRLPRPRPRPNLAPRP, the “shrunken log2 fold change” value was -0.0223.
For RRIRARPPRLPRPRPRPSVCPRP, the “shrunken log2 fold change” value was 0.348.
For RRIRYRPPRLPRPRPRPGAHPRP, the “shrunken log2 fold change” value was -0.818.
With RRIRQRPPRLPRPRPRPEMPPRP the “shrunken log2 fold change” value was 0.188.
RRIRWRPPRLPRPRPRPMKWPRP was tested, and the “shrunken log2 fold change” value was 0.0452.
In the case of RRIRHRPPRLPRPRPRPSDAPRP, the “shrunken log2 fold change” value is reported as -0.293.
For RRIRERPPRLPRPRPRPANDPRP, the “shrunken log2 fold change” value was -0.0189.
For RRIRIRPPRLPRPRPRPMPQPRP, the “shrunken log2 fold change” value was -0.133.
For RRIRGRPPRLPRPRPRPACIPRP, the “shrunken log2 fold change” value was 0.666.
For RRIRPRPPRLPRPRPRPFPNPRP, the “shrunken log2 fold change” value was -0.0765.
In the case of RRIRMRPPRLPRPRPRPWPAPRP, the “shrunken log2 fold change” value is reported as 0.807.
For RRIRHRPPRLPRPRPRPHIVPRP, the “shrunken log2 fold change” value was -0.104.
In the case of RRIRQRPPRLPRPRPRPPWGPRP, the “shrunken log2 fold change” value is reported as 0.242.
For RRIRYRPPRLPRPRPRPDHDPRP, the “shrunken log2 fold change” value was -0.133.
RRIRNRPPRLPRPRPRPFGNPRP was tested, and the “shrunken log2 fold change” value was 0.0247.
With RRIRFRPPRLPRPRPRPAGNPRP the “shrunken log2 fold change” value was 0.135.
In the case of RRIRNRPPRLPRPRPRPKAEPRP, the “shrunken log2 fold change” value is reported as 0.153.
For RRIRFRPPRLPRPRPRPRNTPRP, the “shrunken log2 fold change” value was -0.279.
With RRIRYRPPRLPRPRPRPMLEPRP the “shrunken log2 fold change” value was 0.0653.
For RRIRHRPPRLPRPRPRPHYPPRP, the “shrunken log2 fold change” value was -0.208.
For RRIRDRPPRLPRPRPRPQREPRP, the “shrunken log2 fold change” value was -0.0375.
For RRIRARPPRLPRPRPRPCGDPRP, the “shrunken log2 fold change” value was -0.239.
In the case of RRIRKRPPRLPRPRPRPVYFPRP, the “shrunken log2 fold change” value is reported as -0.181.
In the case of RRIRRRPPRLPRPRPRPMYHPRP, the “shrunken log2 fold change” value is reported as -0.159.
In the case of RRIRRRPPRLPRPRPRPTRLPRP, the “shrunken log2 fold change” value is reported as 0.612.
In the case of RRIRYRPPRLPRPRPRPIELPRP, the “shrunken log2 fold change” value is reported as -0.0405.
RRIRRRPPRLPRPRPRPIYQPRP was tested, and the “shrunken log2 fold change” value was 2.25.
With RRIRWRPPRLPRPRPRPYYVPRP the “shrunken log2 fold change” value was -0.213.
In the case of RRIRNRPPRLPRPRPRPHNYPRP, the “shrunken log2 fold change” value is reported as -0.968.
For RRIRTRPPRLPRPRPRPKHFPRP, the “shrunken log2 fold change” value was -0.0888.
With RRIRHRPPRLPRPRPRPCAPPRP the “shrunken log2 fold change” value was 0.0642.
For RRIRHRPPRLPRPRPRPHWYPRP, the “shrunken log2 fold change” value was -0.347.
With RRIRLRPPRLPRPRPRPVTRPRP the “shrunken log2 fold change” value was 0.0329.
In the case of RRIRFRPPRLPRPRPRPMKSPRP, the “shrunken log2 fold change” value is reported as -0.198.
For RRIRKRPPRLPRPRPRPECCPRP, the “shrunken log2 fold change” value was 0.327.
For RRIRTRPPRLPRPRPRPGSYPRP, the “shrunken log2 fold change” value was -0.0475.
In the case of RRIRDRPPRLPRPRPRPELMPRP, the “shrunken log2 fold change” value is reported as 1.68.
In the case of RRIRTRPPRLPRPRPRPVMFPRP, the “shrunken log2 fold change” value is reported as 0.32.
For RRIRWRPPRLPRPRPRPHIFPRP, the “shrunken log2 fold change” value was -0.494.
In the case of RRIRTRPPRLPRPRPRPSHCPRP, the “shrunken log2 fold change” value is reported as -0.0229.
For RRIRIRPPRLPRPRPRPHPCPRP, the “shrunken log2 fold change” value was -0.736.
RRIRCRPPRLPRPRPRPDSLPRP was tested, and the “shrunken log2 fold change” value was -0.0818.
With RRIRWRPPRLPRPRPRPGQHPRP the “shrunken log2 fold change” value was -0.172.
In the case of RRIRKRPPRLPRPRPRPWRKPRP, the “shrunken log2 fold change” value is reported as 0.0487.
